One test deals with Lpg2149, wild type (Legionella pneumophila, UniProt Q5ZTL2 1-119). Briefly: ITC. The note with it: both partners purified.
A further test concerns the target Lpg2149 (aa 9–119) (Legionella pneumophila, UniProt Q5ZTL2 9-119). Briefly: crystal structure. The note with it: both partners purified.

B1: MvcA, wild type (enzyme)
chain: MIVRGINMTKIKLESPGFMVHKKLKSMSQSYGVMMTGVPAEVLGQMQAERSIPSINKTGNLKQQIAKEVSKVCHMMTEPTQSCGQASNDVCELLLGKIEAEKFHFTKYEALSADGDNLKNVLENTAPSSTNLLIRFEIDREDPPIVLVKTKNENFNPETAVKNKIYLLENKLYFIDKMGNLFNLGPGKKKCTQLFNAIGDSAEYSLCDPFVLEEPEKPEDFAISEIVDIFNEQKERFDFWIGSHSFTIYIPQTLGESPRQFYPYQAYFGSHTLQDWFVSDKDEYLSRIGIDKYIEKLAVLGKTTNTKERSDIYAEFFSKRGREAFFCAHLNEKRQPLRVKFKITEINPELALKNLQETQEFIDTHPGENPSDKVENYRNRAKLAMTEHLESLLDIKPESSPSLFWKNVDKKEQEMTDSSRYKKGPS
For B1, the Kd – broadly, the concentration at which binding is half-saturated – with Lpg2149, wild type was around 28.1 nM.

B2: MvcA (aa 1–400) (enzyme)
chain: MIVRGINMTKIKLESPGFMVHKKLKSMSQSYGVMMTGVPAEVLGQMQAERSIPSINKTGNLKQQIAKEVSKVCHMMTEPTQSCGQASNDVCELLLGKIEAEKFHFTKYEALSADGDNLKNVLENTAPSSTNLLIRFEIDREDPPIVLVKTKNENFNPETAVKNKIYLLENKLYFIDKMGNLFNLGPGKKKCTQLFNAIGDSAEYSLCDPFVLEEPEKPEDFAISEIVDIFNEQKERFDFWIGSHSFTIYIPQTLGESPRQFYPYQAYFGSHTLQDWFVSDKDEYLSRIGIDKYIEKLAVLGKTTNTKERSDIYAEFFSKRGREAFFCAHLNEKRQPLRVKFKITEINPELALKNLQETQEFIDTHPGENPSDKVENYRNRAKLAMTEHLESLLDIKPESS
Regarding B2, the binding result with Lpg2149 (aa 9–119) is on record as “binds”.
